According to article PMC9526450 (Nature structural & molecular biology, 2022):

Target: T1, Strep-tagged WT UBE2O from Expi293F cells (human, UniProt Q9C0C9 1-1292)
T1 sequence (looked up): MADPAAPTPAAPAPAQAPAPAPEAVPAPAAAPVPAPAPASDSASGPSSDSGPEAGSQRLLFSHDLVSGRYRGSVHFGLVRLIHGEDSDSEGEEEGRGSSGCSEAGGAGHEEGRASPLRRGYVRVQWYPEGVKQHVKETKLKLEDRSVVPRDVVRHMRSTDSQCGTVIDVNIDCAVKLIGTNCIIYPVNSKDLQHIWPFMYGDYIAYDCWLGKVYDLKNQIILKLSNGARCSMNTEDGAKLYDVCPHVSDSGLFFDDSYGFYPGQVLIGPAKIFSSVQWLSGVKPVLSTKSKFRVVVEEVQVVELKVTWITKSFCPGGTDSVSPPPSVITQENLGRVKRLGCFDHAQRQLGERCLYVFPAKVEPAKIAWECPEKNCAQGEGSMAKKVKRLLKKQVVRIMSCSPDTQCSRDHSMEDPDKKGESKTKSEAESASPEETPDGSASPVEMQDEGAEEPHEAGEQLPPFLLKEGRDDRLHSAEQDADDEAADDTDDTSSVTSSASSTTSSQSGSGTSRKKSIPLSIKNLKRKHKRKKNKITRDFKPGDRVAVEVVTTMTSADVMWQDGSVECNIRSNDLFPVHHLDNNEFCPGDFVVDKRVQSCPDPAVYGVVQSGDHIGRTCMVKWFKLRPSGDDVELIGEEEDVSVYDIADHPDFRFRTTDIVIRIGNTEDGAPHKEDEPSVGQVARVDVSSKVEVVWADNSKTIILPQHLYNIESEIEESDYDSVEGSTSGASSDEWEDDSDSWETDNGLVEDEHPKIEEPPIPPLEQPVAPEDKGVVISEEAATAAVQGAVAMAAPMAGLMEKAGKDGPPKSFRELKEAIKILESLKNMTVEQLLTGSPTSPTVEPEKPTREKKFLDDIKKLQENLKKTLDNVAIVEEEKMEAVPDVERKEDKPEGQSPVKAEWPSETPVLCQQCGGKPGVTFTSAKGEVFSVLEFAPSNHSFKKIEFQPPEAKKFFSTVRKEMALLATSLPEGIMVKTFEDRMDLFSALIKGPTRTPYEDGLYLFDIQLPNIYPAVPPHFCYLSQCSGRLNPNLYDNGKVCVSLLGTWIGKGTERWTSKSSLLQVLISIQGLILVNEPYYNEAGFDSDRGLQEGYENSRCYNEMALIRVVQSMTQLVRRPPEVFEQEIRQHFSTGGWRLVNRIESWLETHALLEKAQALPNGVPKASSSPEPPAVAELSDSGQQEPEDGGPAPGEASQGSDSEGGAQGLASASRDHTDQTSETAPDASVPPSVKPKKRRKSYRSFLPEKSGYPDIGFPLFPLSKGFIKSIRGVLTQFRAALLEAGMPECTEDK
Test: SEC

binding result: binds
B1: purified Strep-tagged NAP1L1 (natural protein, human, UniProt P55209 1-391, looked up)
chain: MADIDNKEQSELDQDLDDVEEVEEEETGEETKLKARQLTVQMMQNPQILAALQERLDGLVETPTGYIESLPRVVKRRVNALKNLQVKCAQIEAKFYEEVHDLERKYAVLYQPLFDKRFEIINAIYEPTEEECEWKPDEEDEISEELKEKAKIEDEKKDEEKEDPKGIPEFWLTVFKNVDLLSDMVQEHDEPILKHLKDIKVKFSDAGQPMSFVLEFHFEPNEYFTNEVLTKTYRMRSEPDDSDPFSFDGPEIMGCTGCQIDWKKGKNVTLKTIKKKQKHKGRGTVRTVTKTVSNDSFFNFFAPPEVPESGDLDDDAEAILAADFEIGHFLRERIIPRSVLYFTGEAIEDDDDDYDEEGEEADEEGEEEGDEENDPDYDPKKDQNPAECKQQ
